How the values were obtained:
Man9-V3 glycopeptide [1] = test: biolayer interferometry, biotinylated Man9-V3 on streptavidin sensors, antibody in solution, global fit to the bivalent avidity model
Man9-V3 glycopeptide [2] = test: biolayer interferometry, biotinylated peptide on streptavidin sensors
Man9-V3 glycopeptide [3] = test: biolayer interferometry, biotinylated Man9-V3 on streptavidin sensors, antibody in solution; inset curves (100, 50, 25 µg/mL) after subtraction of the palivizumab signal

B1: DH270.3 (antibody, V domains shown)
VH: QVQLVQSGAEMKNPGASVKVSCAASGYTFTDFYIHWVRLAPGQGLEWMGWMNPKTGRTNNAQNFQGRVIMTRDTSIGTAYMELRRLTSDDTAVYYCVTGGWISPYYDSSYYPNFDHWGQGTLVTVSS
VL: QSALTQPASVSGSPGQSITISCTGTSYDVGKFDLVSWYQQHPGKAPKYMIYEVNKWPSGVSHRFSGSKSGNTASLTISGLQAEDEADYYCCSFGGSATVVCGGGTKVTVL
For B1, the koff (Man9-V3 glycopeptide [1]) was 0.000778 s⁻¹ and the kon (Man9-V3 glycopeptide [1]) was 4000 M⁻¹ s⁻¹.

B2: DH270.4 (antibody, V domains shown)
VH: EVQLVQSGAEMKNPGASVKVSCAASGYGFTDFYIHWVRLAPGHGLQWMGWMNPKTGRTNNAQDFQGRVILTRDTSIGTAYMELRRLTSDDTAVYYCVTGGWISPYYDSSYYPNFDHWGQGTLITVSS
VL: QSALTQPASVSGSPGQSITISCTGTSYDVAKFDLVSWFQQHPGKAPKYMIYEVNKWPSGVSHRFSGSKSGNTASLTISGLQAEDEADYYCCSFGGSATVVCGGGTKVTVL
For B2, the koff (Man9-V3 glycopeptide [1]) was 0.00052 s⁻¹ and the kon (Man9-V3 glycopeptide [1]) was 1500 M⁻¹ s⁻¹.

B3: DH270.6 (antibody, V domains shown)
VH: QVQLVQSGAQMKNPGASVKVSCAPSGYTFTDFYIHWLRQAPGQGLQWMGWMNPQTGRTNTARNFQGRVIMTRDTSIGTAYMELRSLTSDDTAIYYCTTGGWISLYYDSSYYPNFDHWGQGTLLTVSS
VL: TSLLTQPASVSGSPGQSITISCTGTKYDVGSHDLVSWYQQYPGKVPKYMIYEVNKRPSGVSNRFSGSKSGNTASLTISGLRAEDEADYYCCSFGGSATVVCGGGTKVTVL
B3 gave a Kd (Man9-V3 glycopeptide [2]) of 188 nM, a koff (Man9-V3 glycopeptide [1]) of 0.00037 s⁻¹ and a kon (Man9-V3 glycopeptide [1]) of 1970 M⁻¹ s⁻¹.

B4: DH270.5 (antibody, V domains shown)
VH: QVQLVQSGAEVKNPGASVKVSCAPSGYTFTDFYIHWVRLAPGQGLEWLGWMNPKTGRTNQGQNFQGRVIMTRDTSIGTAYMELRSLTSDDTAVYYCVTGAWISDYYDSSYYPNFDHWGQGTLVTVSS
VL: LPVLTQPASVSGSPGQSITISCTGTIYDVGKFDLVSWYQHHPGKAPKYLIYEVKKWPSGVSHRFSGSKSGNTASLTISGLQVEDEADYYCCSFGGSAAVVCGGGTKVTVL
Work on B4 yielded a koff (Man9-V3 glycopeptide [1]) of 0.00091 s⁻¹ and a kon (Man9-V3 glycopeptide [1]) of 3300 M⁻¹ s⁻¹.

B5: DH270.IA4 (antibody, V domains shown)
VH: QVQLVQSGAEVKKPGASVKVSCKASGYTFTDYYIHWVRQAPGQGLEWMGWINPNTGRTNYAQKFQGRVTMTRDTSISTAYMELSRLRSDDTAVYYCARGGWIGLYYDSSGYPNFDYWGQGTLVTVSS
VL: QSALTQPASVSGSPGQSITISCTGTSYDVGSYNLVSWYQQHPGKAPKLMIYEVSKRPSGVSNRFSGSKSGNTASLTISGLQAEDEADYYCCSYAGSSTVIFGGGTKLTVL
B5 was tested, and the Kd (Man9-V3 glycopeptide [2]) was greater than 10000 nM and the Kd (Man9-V3 glycopeptide [3]) was greater than 10000 nM.

B6: DH270.2 (antibody, V domains shown)
VH: QVQLVQSGAEMKKPGASVRVSCKASGYTFTDYYIHWVRQAPGQGPEWMGWINPSTGRTNSPQKFQGRVIMTRDTSISTAYMDLNRLTSDDTAMYYCTTGGWIGLYSDTSGYPNFDYWGQGTLVTVSS
VL: QSALTQPASVSGSPGQSITISCTGTNYDVGSYNLVSWYQQHPGKVPKYIIYEVNKRPSGVSNRFSGSKSGNTASLTISGLQAEDEADYYCCSYAGSSIIFFGGGTKLTVI
For B6, the koff (Man9-V3 glycopeptide [1]) was 0.0081 s⁻¹ and the kon (Man9-V3 glycopeptide [1]) was 1710 M⁻¹ s⁻¹.

B7: DH270.1 (antibody, V domains shown)
VH: QVQLVQSGAEMKKPGASVKVSCKASGYTFTDYYIHWVRQAPGQGLEWMGWINPNTGRTNYAQKFQGRVIMTRDTSISTAYMELSRLTSDDTAVYYCATGGWIGLYYDSSGYPNFDYWGQGTLVTVSS
VL: QSALTQPASVSGSPGQSITISCTGTSYDVGSYNLVSWYQQHPGKAPKYMIYEVNKRPSGVSNRFSGSKSGNTASLTISGLQAEDEADYYCCSYAGSSTVIFGGGTKLTVL
In the case of B7, the Kd (Man9-V3 glycopeptide [2]) is reported as 331 nM, the koff (Man9-V3 glycopeptide [1]) is reported as 0.00051 s⁻¹ and the kon (Man9-V3 glycopeptide [1]) is reported as 1540 M⁻¹ s⁻¹.

Reference: patent US20240150445A1
